Test results taken from US11834518 (dated 2023).
Substitutions are numbered along the chain they refer to. Square brackets hold non-standard residues; d marks the D form. Ends that are not written are not given here. F2Pmp = N[C@@H](Cc1ccc(C(F)(F)P(=O)(O)O)cc1)C(=O)O; pY = N[C@@H](Cc1ccc(OP(=O)(O)O)cc1)C(=O)O; AEEA = NCCOCCOCC(=O)O

T1: STEP32 C/S (human, UniProt P54829)
T1 chain: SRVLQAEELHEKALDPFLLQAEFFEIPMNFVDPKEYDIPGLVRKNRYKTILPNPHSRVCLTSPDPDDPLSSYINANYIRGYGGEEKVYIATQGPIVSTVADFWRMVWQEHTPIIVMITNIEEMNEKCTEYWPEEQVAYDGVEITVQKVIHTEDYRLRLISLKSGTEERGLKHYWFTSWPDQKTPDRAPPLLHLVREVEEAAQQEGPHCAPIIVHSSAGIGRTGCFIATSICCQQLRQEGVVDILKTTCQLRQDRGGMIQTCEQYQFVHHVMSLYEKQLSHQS

T2: STEP32 WT (human, UniProt P54829)
T2 chain: T1 chain with S215C


Target: T1, STEP32 C/S
Assay: FP competition

IC50 [nM]	Binder
8010	GYNV[pY] [p-fin 1]
3360	EGYNV[pY]GD [p-fin 5]

More lines, now with the values behind:

Binder	IC50 [nM]
[AEEA]EGYNV[pY] [p3Ysh-3]	2600
NGYNV[pY] [p-fin 3]	8840
EGYNV[pY]E [p-fin 4]	1860
DGYNV[pY] [p-fin 2]	7150

Target: T1, STEP32 C/S
Assay: FP competition
Remark: another data set of the same source

Ki [nM]	Binder
1900	GYNV[pY] [p-fin 1]
760	EGYNV[pY]GD [p-fin 5]

The remaining lines, values behind:

Binder	Ki [nM]
[AEEA]EGYNV[pY] [p3Ysh-3]	690
NGYNV[pY] [p-fin 3]	2160
EGYNV[pY]E [p-fin 4]	360
DGYNV[pY] [p-fin 2]	1850

Target: T1, STEP32 C/S
Assay: SPR 25C

Kd [nM]	Binder
90	EGYNV[pY]E [p-fin 4]

Target: T1, STEP32 C/S
Assay: SPR 25C
Remark: another data set of the same source

Kd [nM]	Binder
3960	[AEEA]YNV[pY]G [p3Ysh-2]
26000	[AEEA]NV[pY]G [p3Ysh-1]

Second part, the binder before the results:

Binder	Kd [nM]
ATYKEGYNV[pY]G [p3Y]	232
[AEEA]EGYNV[pY] [p3Ysh-3]	53.1
EGYNV[pY]E [p-fin 4]	88.4
[AEEA]FGYNV[pY]G [p3Ysh-6]	6130

Target: T1, STEP32 C/S
Assay: FP competition
Remark: another data set of the same source

Ki [nM]	Binder
13100	[AEEA]YNV[pY]G [p3Ysh-2]
4990	[AEEA]NV[pY]G [p3Ysh-1]

Continued, binder first:

Binder	Ki [nM]
[AEEA]NS[pY]G [p3Ysh-4]	13700
[AEEA]YV[pY]G [p3Ysh-5]	5340
ATYKEGYNV[pY]G [p3Y]	2360
[AEEA]EGYNV[pY] [p3Ysh-3]	1640
[AEEA]FS[pY]G [p3Ysh-7]	4570
[AEEA]FGYNV[pY]G [p3Ysh-6]	6960

Target: T1, STEP32 C/S
Assay: SPR 25C
Remark: another data set of the same source

binding result	Binder
no binding	[AEEA]NS[pY]G [p3Ysh-4]
no binding	[AEEA]FS[pY]G [p3Ysh-7]

Target: T1, STEP32 C/S
Assay: FP competition
Remark: another data set of the same source

Ki [nM]	Binder
1620	AAYKEGYNV[pY]G [p3YAla2]
2310	ATYKEAYNV[pY]G [p3YAla6]
2710	ATYKEGYNV[pY]A [p3YAla10]

Second part, the binder before the results:

Binder	Ki [nM]
ATYKEGYNV[pY]G [p3Y]	2820
ATYAEGYNV[pY]G [p3YAla4]	2530
ATYKEGYAV[pY]G [p3YAla8]	2470
ATYKEGANV[pY]G [p3YAla7]	4450
ATAKEGYNV[pY]G [p3YAla3]	4810
ATYKAGYNV[pY]G [p3YAla5]	4140
ATYKEGYNA[pY]G [p3YAla9]	5940

Target: T2, STEP32 WT
Assay: SPR 25C

Kd [nM]	Binder
270	ATYKEGYNV[F2Pmp]G [3Y-F2Pmp]
240	EGYNV[F2Pmp] [3Ysh-3-F2Pmp]

Target: T1, STEP32 C/S
Assay: SPR 25C
Remark: another data set of the same source

Kd [nM]	Binder
3960	[AEEA]YNV[pY]G [p3Ysh-2]
26000	[AEEA]NV[pY]G [p3Ysh-1]

Second part, the binder before the results:

Binder	Kd [nM]
ATYKEGYNV[pY]G [p3Y]	240
[AEEA]EGYNV[pY] [p3Ysh-3]	60
[AEEA]FGYNV[pY]G [p3Ysh-6]	6130

Target: T2, STEP32 WT
Assay: SPR 25C
Remark: another data set of the same source

Kd [nM]	Binder
268	ATYKEGYNV[F2Pmp]G [3Y-F2Pmp]
242	EGYNV[F2Pmp] [3Ysh-3-F2Pmp]
